According to publication PMC4773095:

Target: NsrR, response regulator from Streptococcus agalactiae COH1 (full length) (Streptococcus agalactiae COH1)
Experiment: SEC; Superdex 200 GL 10/300, buffer C (25 mM Tris pH 9.0, 50 mM NaCl, 2 mM PMSF); column calibrated with proteins of known molecular weight

NsrR, response regulator from Streptococcus agalactiae COH1 (full length) (natural protein)
stoichiometry N: 2
